We go through one molecule from paper PMC10294715, “Single-cell RNA-seq uncovers dynamic processes orchestrated by RNA-binding protein DDX43 in chromatin remodeling during spermiogenesis”.

In this series the target is DDX43-KI (Mus musculus, UniProt D3Z6P9 1-646, E395Q). The experiment in a line: EMSA; EMSA: 10 nM biotin-RNA, 50 mM Tris-HCl pH 7.5, 100 mM KCl, 2.5% glycerol, 0.05% NP-40, 4 mM EDTA, 1 mM DTT, RiboLock 2 U, 37 C 30 min; 8% native TBE PAGE at 4 C; G4 folded in 50 mM Tris-HCl pH 7.5, 150 mM KCl, 0.1 mM EDTA. Conditions: protein: recombinant; tags: His tag (Ni-NTA, pET28a); label: 3' biotin; single strand. (In general: In EMSA bound probe runs differently from free probe, usually more slowly.)
DDX43-KI, sequence (D3Z6P9 entry or part of it E395Q): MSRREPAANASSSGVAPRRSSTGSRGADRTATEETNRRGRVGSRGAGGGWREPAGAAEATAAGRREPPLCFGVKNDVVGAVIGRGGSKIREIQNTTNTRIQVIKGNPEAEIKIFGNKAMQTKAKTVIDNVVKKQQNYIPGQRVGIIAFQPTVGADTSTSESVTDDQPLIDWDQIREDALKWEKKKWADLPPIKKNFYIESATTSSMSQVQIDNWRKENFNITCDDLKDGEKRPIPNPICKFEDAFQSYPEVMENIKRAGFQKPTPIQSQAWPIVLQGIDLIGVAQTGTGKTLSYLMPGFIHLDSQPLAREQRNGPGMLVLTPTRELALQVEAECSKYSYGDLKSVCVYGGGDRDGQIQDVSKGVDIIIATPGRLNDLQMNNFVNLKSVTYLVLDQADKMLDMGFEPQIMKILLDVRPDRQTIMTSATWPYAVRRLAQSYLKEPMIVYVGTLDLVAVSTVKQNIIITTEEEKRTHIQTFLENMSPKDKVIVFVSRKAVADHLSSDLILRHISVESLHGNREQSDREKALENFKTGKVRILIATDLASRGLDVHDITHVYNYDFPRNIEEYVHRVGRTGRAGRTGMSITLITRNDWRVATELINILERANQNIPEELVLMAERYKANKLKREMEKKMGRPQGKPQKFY

B1: ssRNA (ssRNA)
RNA: ACCGCUGCCGUCGCUCCG
Consider B1, for which the binding result is “no binding”.
